This is an account of results in the supplement of paper PMC12764529.

± gives the half width of the 95% confidence interval.

The nature of data set [1]: folding stability dG unfold (combined trypsin and chymotrypsin); higher = more stable. In outline: (§1)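 Digests were run with trypsin and chymotrypsin at 11 concentrations in threefold dilutions, plus a no-protease condition, on designed mini-proteins in a PA-tagged cDNA display construct. The mini-proteins were under 80 residues, had no cysteine, and were kept only when AlphaFold2 dimer inter-PAE was above 15. After sequencing, Bayesian fitting of the counts gave K50, from which unfolding free energy was derived against a sequence-predicted unfolded-state K50 and a shared folded-state K50, per protease or combined.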

A short description of data set [2]: folding stability dG unfold from trypsin proteolysis; higher = more stable. The procedure, abridged:
as §1

A short description of data set [3]: folding stability dG unfold from chymotrypsin proteolysis; higher = more stable. The procedure, abridged: as §1

For “SAGGSAGGGIDLSNPEDIEEALKKSGIVGVFKVKIIPLPGGKWKKIIEPVKLLPKEELEKAGLISAGGSAGG [r6_402_TrMRF]”, the “folding stability dG unfold” value in data set [1] was determined as 0.637 ± 0.095 kcal/mol; in data set [2], 0.825 ± 0.043 kcal/mol; in data set [3], 0.444 ± 0.12 kcal/mol.
The corresponding values for “SAGGSAGGGIEPGKKVKAKATLILPGGKPIPFTATFTPDYVTLDLGKGSLTVPVEFIAHLEIEDSAGGSAGG [r6_132_TrMRF]” are 1.11 ± 0.053 kcal/mol, 0.371 ± 0.052 kcal/mol and 1.48 ± 0.079 kcal/mol.
The corresponding values for “SAGGSAGGGKMEYDPKDGTMRWRDPANGIEHESRIEIPPIVIPADDLPKLREQFPPDMPVVLAGSAGGSAGG [r6_104_TrROS]” are 0.722 ± 0.043 kcal/mol, 0.238 ± 0.034 kcal/mol and 0.94 ± 0.062 kcal/mol.
The like results for “SAGGSAGGGKSFSIPVDDAVILDYDPVTKRLTILLPGPGVELVLPLDKVKRIEIDPETGTIHVESAGGSAGG [r6_313_TrMRF]” were, in that order, 1.64 ± 0.073 kcal/mol, 1.54 ± 0.022 kcal/mol and 1.61 ± 0.02 kcal/mol.
In the case of “SAGGSAGGGMEPVTETITVPITTPEELEAVKKEAEARREKEGLVSYEISESPDGTVTITITKPVSAGGSAGG [r6_730_JUSTAS]”, the figures for the “folding stability dG unfold” value in data set [1], in data set [2] and in data set [3] were 0.427 ± 0.34 kcal/mol, 0.155 ± 0.1 kcal/mol and 0.334 ± 0.071 kcal/mol, respectively.
The like results for “SAGGSAGGGMPISISITVTLSDGTVLEFTVTVPENAPDPASVAAALAAEIKAAHPDVAVTFTPASAGGSAGG [r6_132_JUSTAS]” were, in that order, 1.53 ± 0.077 kcal/mol, 0.849 ± 0.054 kcal/mol and 1.72 ± 0.025 kcal/mol.
Turning to “SAGGSAGGGMVKVTLRITYYNSTGPYTSDRVFELPPDEVEALIEAIPPPPDATPEVEVEREPLGSAGGSAGG [r6_428_JUSTAS]”, the entries for the “folding stability dG unfold” value in data set [1], in data set [2] and in data set [3] were 1.22 ± 0.14 kcal/mol, 0.8 ± 0.042 kcal/mol and 1.53 ± 0.15 kcal/mol, respectively.
The like results for “SAGGSAGGGPPGTTTTTISTPDGPVTVTVSPTSVTVTRPGSNETVTSSGSPTTTLEEIAAEIAASAGGSAGG [r6_317_JUSTAS]” were, in that order, 2.24 ± 0.11 kcal/mol, 2.88 ± 0.14 kcal/mol and 1.58 ± 0.052 kcal/mol.
The corresponding values for “SAGGSAGGGPPSPVQTSTTSFSVSGDSSVTNVTVVTLPDGSLLVETTVFPSSGGSVSSLSSIPASAGGSAGG [r6_670_JUSTAS]” are 0.855 ± 0.058 kcal/mol, 1.27 ± 0.031 kcal/mol and 0.218 ± 0.21 kcal/mol.
The like results for “SAGGSAGGGRYLVLIEFENGFPLAYVFPSPEDVVEHTRLLEERLGYPIKRIEVYKIDPNGKAYASAGGSAGG [r6_162_TrMRF]” were, in that order, 2.53 ± 0.086 kcal/mol, 2.41 ± 0.053 kcal/mol and 2.42 ± 0.12 kcal/mol.
In the case of “SAGGSAGGGSFTLTEEPGGVLTITTPDKTLTVNLEGVTPDPNSDTTFSFTLSLDPDDSASVTSSSAGGSAGG [r6_202_JUSTAS]”, the “folding stability dG unfold” value in data set [1] was 1.47 ± 0.1 kcal/mol; in data set [2], 1.44 ± 0.023 kcal/mol; in data set [3] it was 1.43 ± 0.091 kcal/mol.
The like results for “SAGGSAGGGTVLAEEEEPETGLVRRLVRLPDGTLVESVSLVDPETGEVLSEEVLRETPLPPPGLSAGGSAGG [r6_928_JUSTAS]” were, in that order, 1.29 ± 0.12 kcal/mol, 0.898 ± 0.08 kcal/mol and 1.41 ± 0.054 kcal/mol.
The corresponding values for “SAGGSAGGIEITEISRSEELLKLDVPEDTLVLKVKHPDGKEIEVTFPANIPIEEAKEKAKEFVESAGGSAGG [r6_986_TrMRF]” are -0.188 ± 0.18 kcal/mol, -0.248 ± 0.079 kcal/mol and -0.176 ± 0.15 kcal/mol.
The like results for “SAGGSAGGIKELLEALGFEVVDVEPTDNKFMIMIRNPEEGRVVVIEIEWDGPPKIEIHPMPPNASAGGSAGG [r6_195_TrROS]” were, in that order, 2.31 ± 0.13 kcal/mol, 2.38 ± 0.065 kcal/mol and 2.11 ± 0.04 kcal/mol.
Turning to “SAGGSAGGIYIFFPPEDLEPIAPFTITIEVKRRDPDGDEPQPRKQTIPIRIYRAPNNNLMIEPGSAGGSAGG [r6_278_TrROS]”, the “folding stability dG unfold” value in data set [1] turned out to be 0.881 ± 0.087 kcal/mol; in data set [2], 0.742 ± 0.11 kcal/mol; in data set [3], 0.919 ± 0.19 kcal/mol.
“SAGGSAGGKAEKITLEIPNTGKKVEIIKPENKAIITVYDKNGKPIKTIVVPPNFPGIEDAVKADSAGGSAGG [r6_424_TrMRF]”: the results for the “folding stability dG unfold” value in data set [1], in data set [2] and in data set [3] were 0.434 ± 0.12 kcal/mol, -0.267 ± 0.068 kcal/mol and 0.773 ± 0.061 kcal/mol, respectively.
As to “SAGGSAGGKETKTITMIIKVKDENGKELKAGDKVEIEINGKKITIEVTYNKKTGYLVVKATIKPSAGGSAGG [r6_657_TrROS_Hall]”, the “folding stability dG unfold” value is 3.37 ± 0.17 kcal/mol in data set [1], 2.47 ± 0.096 kcal/mol in data set [2] and 3.87 ± 0.11 kcal/mol in data set [3].
The corresponding values for “SAGGSAGGKEVYKIKVKNAEIVDFDEETGELTIKLKETGKEIKIPLKAIKKIEITDDYIYIYVESAGGSAGG [r6_313_TrROS_Hall]” are 4.15 ± 0.17 kcal/mol, 3.64 ± 0.25 kcal/mol and 4.21 ± 0.13 kcal/mol.
